In patent publication US20220281967A1 (OREGA BIOTECH, published 2022):
One block for each binder: values may come before it.

Columns and labels:
[1] = target: T1, human IL-17B (R&D Systems, ref: 1248-IB/CF) (UniProt Q9UHF5 21-180); assay: ELISA
T1 chain: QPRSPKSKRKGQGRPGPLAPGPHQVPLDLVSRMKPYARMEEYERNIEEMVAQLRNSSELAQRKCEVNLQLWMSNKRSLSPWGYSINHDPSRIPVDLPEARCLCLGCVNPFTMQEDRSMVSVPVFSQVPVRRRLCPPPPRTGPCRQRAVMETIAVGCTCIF

[2] = target: T2, human IL-17B (R&D Systems, ref: 1248-IB/CF) (human, UniProt Q9UHF5 21-180); assay: ELISA, human IL-17B coated on the plate, goat anti-mouse HRP detection
T2 construct: Bought recombinant protein; also called hIL-17B; interleukin 17B
T2 sequence: T1 chain

B1: Antibody 12F9 (antibody, V domains shown)
VH: QVQLQQSGPELVKPGASVKISCKASGYTFTDYFINWVRQRPGQGLEWIGWIFPGSGSTYYHEKFKGKATLTVDKSSSTAYMLLSSLTSEDSAVYFCARTLYGNWYFDVWGTGTTVTVSS
VL: DVLMTQTPLSLPVSLGDQASISCRSSQSIVHSNGNTYLEWYLQKPGQSPKLLIYKVSNRFSGVPDRFSGSGSGTDFTLKISRVEAEDLGVYYCFQGSHVPYTFGGGTKLEIK
notes: Mouse monoclonal antibody directed against human IL-17B; also called mAb 12F9
- EC50 [1]: 13.7 ng/mL
- binding result [2]: binds

B3: Antibody 18G9 (antibody, V domains shown)
VH: QITLKESGPGILKPSQTLSLTCSFSGFSLSTSGMGVGWIRQPSGKGLEWLAHIWWDDDKYYNPSLKSQLTISKDTSRNQVFLRITSVDTADTATYYCARRTQGYFDYWGQGTTLTVSS
VL: DILMTQSPASLAVSLGQRATISCKASQSVDYDGDSYMNWYQQKPGQPPKLLIYAASNLESGIPARFSGSGSGTDFTLNIHPVEEEDAATYYCQQSNEDPLTFGAGTKLELK
notes: Mouse monoclonal antibody directed against human IL-17B; also called mAb 18G9; 18G9a
- EC50 [1]: 6.88 ng/mL
- binding result [2]: binds

Second part, the binder after the results:

- EC50 [1]: 6.64 ng/mL
- binding result [2]: binds
B2: Antibody 13H5 (antibody, V domains shown)
VH: QVTLKESGPGILQPSQTLSLTCSFSGFSLSTFGMGVGWIRQPSGKGLEWLAHIWWDDDKYYNPALKSRLTISKDTSKNQVFLKIANVDTADTATYYCARMNDGYLYYWGQGTSVTVSS
VL: QIVLTQSPAIMSASPGEKVTMTCSASSSVSYMYWYQQKPGSSPRLLIYDTSNLASGVPVRFSGSGSGTSYSLTISRMEAEDAATYYCQQWSSYPFTFGSGTKLEIK
notes: Mouse monoclonal antibody directed against human IL-17B; also called mAb 13H5

- EC50 [1]: 2.28 ng/mL
- binding result [2]: binds
B4: Antibody 21H6 (antibody, V domains shown)
VH: QVTLKESGPGILQPSQTLSLTCSFSGFSLSTFGMGVGWIRQPSGKGLEWLAHIWWDDDKYYNPALKGRLTISKDTSKNQVFLKIANVDTADTATYFCARIEDALDYWGQGTSVTVSS
VL: DIVMTQSPATLSVTPGDRVSLSCRASQNISDYLHWYQQKSHESPRLLIKYTSQSISGIPSRFSGSGSGSDFTLSINSVEPEDVGVYYCQNGHSFPFTFGSGTKLEIK
notes: Mouse monoclonal antibody directed against human IL-17B; also called mAb 21H6
